# In publication PMC9411592, “Specificity of TGF-β1 signal designated by LRRC33 and integrin αVβ8” (Nature Communications, 2022):
# Where a chain is given by its changes, count along the chain named.
# B1: integrin αVβ8 headpiece (αV residues 1-594, β8 residues 1-456) (complex)
# chain 1: FNLDVDSPAEYSGPEGSYFGFAVDFFVPSASSRMFLLVGAPKANTTQPGIVEGGQVLKCDWSSTRRCQPIEFDATGNRDYAKDDPLEFKSHQWFGASVRSKQDKILACAPLYHWRTEMKQEREPVGTCFLQDGTKTVEYAPCRSQDIDADGQGFCQGGFSIDFTKADRVLLGGPGSFYWQGQLISDQVAEIVSKYDPNVYSIKYNNQLATRTAQAIFDDSYLGYSVAVGDFNGDGIDDFVSGVPRAARTLGMVYIYDGKNMSSLYNFTGEQMAAYFGFSVAATDINGDDYADVFIGAPLFMDRGSDGKLQEVGQVSVSLQRASGDFQTTKLNGFEVFARFGSAIAPLGDLDQDGFNDIAIAAPYGGEDKKGIVYIFNGRSTGLNAVPSQILEGQWAARSGCPPSFGYSMKGATDIDKNGYPDLIVGAFGVDRAILYRARPVITVNAGLEVYPSILNQDNKTCSLPGTALKVSCFNVRFCLKADGKGVLPRKLNFQVELLLDKLKQKGAIRRALFLYSRSPSHSKNMTISRGGLMQCEELIAYLRDESEFRDKLTPITIFMEYRLDYRTAADTTGLQPILNQFTPANISRQAHILLD
# chain 2: EDNRCASSNAASCARCLALGPECGWCVQEDFISGGSRSERCDIVSNLISKGCSVDSIEYPSVHVIIPTENEINTQVTPGEVSIQLRPGAEANFMLKVHPLKKYPVDLYYLVDVSASMHNNIEKLNSVGNDLSRKMAFFSRDFRLGFGSYVDKTVSPYISIHPERIHNQCSDYNLDCMPPHGYIHVLSLTENITEFEKAVHRQKISGNIDTPEGGFDAMLQAAVCESHIGWRKEAKRLLLVMTDQTSHLALDSKLAGIVCPNDGNCHLKNNVYVKSTTMEHPSLGQLSEKLIDNNINVIFAVQGKQFHWYKDLLPLLPGTIAGEIESKAANLNNLVVEAYQKLISEVKVQVENQVQGIYFNITAICPDGSRKPGMEGCRNVTSNDEVLFNVTVTMKKCDVTGGKNYAIIKPIGFNETAKIHIHRNCSCQCEDNRGPKGKCVDETFLDSKCFQCDENK
# B2: integrin αVβ6 headpiece (αV residues 1-594, β6 residues 1-474) (complex)
# chain 1: B1 chain 1
# chain 2: HVQGGCALGGAETCEDCLLIGPQCAWCAQENFTHPSGVGERCDTPANLLAKGCQLNFIENPVSQVEILKNKPLSVGRQKNSSDIVQIAPQSLILKLRPGGAQTLQVHVRQTEDYPVDLYYLMDLSASMDDDLNTIKELGSRLSKEMSKLTSNFRLGFGSFVEKPVSPFVKTTPEEIANPCSSIPYFCLPTFGFKHILPLTNDAERFNEIVKNQKISANIDTPEGGFDAIMQAAVCKEKIGWRNDSLHLLVFVSDADSHFGMDSKLAGIVCPNDGLCHLDSKNEYSMSTVLEYPTIGQLIDKLVQNNVLLIFAVTQEQVHLYENYAKLIPGATVGLLQKDSGNILQLIISAYEELRSEVELEVLGDTEGLNLSFTAICNNGTLFQHQKKCSHMKVGDTASFSVTVNIPHCERRSRHIIIKPVGLGDALELLVSPECNCDCQKEVEVNSSKCHHGNGSFQCGVCACHPGHMGPRCE
# B3: integrin αVβ6-8DLL headpiece (the disulfide-linked loop of β6 substituted by that of β8) (complex)
# chain 1: B1 chain 1
# chain 2: B2 chain 2 with S182D, I183Y, P184N, Y185L, F186D
# How the values were obtained:
# [1] = biological target: L-TGF-β1/LRRC33 complex (L-TGF-β1 dimer disulfide-linked to one LRRC33 ectodomain) (human, N-linked glycosylation | N-linked glycosylation); experiment: cryo-EM structure; purified αVβ8 headpiece and purified L-TGF-β1/LRRC33 mixed on ice at a molar ratio of 2.2:1 with 1 mM MnCl2 and 0.2 mM CaCl2, then SEC; 2:2:1 map at 5.19 Å, masked 1:2 αVβ8/L-TGF-β1 at 3.24 Å; conditions: both partners purified
# [2] = biological target: T1, L-TGF-β1 C4S/R249A (the 'WT' of the SPR assay) (human); experiment: SPR; Biacore T200, 25 °C; L-TGF-β1 (C4S/R249A, or + RGEGATG) immobilised on a CM5 chip by amine coupling; integrin headpieces injected at 20 μl/min in 20 mM HEPES pH 7.5, 150 mM NaCl, 1 mM MgCl2, 1 mM CaCl2; 1:1 Langmuir model; conditions: both partners purified
# T1 construct: latent TGF-β1, human, with C4S and R249A; numbers count on: the protein without its signal peptide; The methods describe L-TGF-β1 alone as N-terminally His6-tagged, made in HEK293S GnTI- cells, tag cleaved with PreScission; also called WT (C4S/R249A) L-TGF-β1; mutant L-TGF-β1 (C4S/R249A); source: purified
# T1 sequence (P01137 other isoform, or with tags, fused parts or gaps R249A R249A): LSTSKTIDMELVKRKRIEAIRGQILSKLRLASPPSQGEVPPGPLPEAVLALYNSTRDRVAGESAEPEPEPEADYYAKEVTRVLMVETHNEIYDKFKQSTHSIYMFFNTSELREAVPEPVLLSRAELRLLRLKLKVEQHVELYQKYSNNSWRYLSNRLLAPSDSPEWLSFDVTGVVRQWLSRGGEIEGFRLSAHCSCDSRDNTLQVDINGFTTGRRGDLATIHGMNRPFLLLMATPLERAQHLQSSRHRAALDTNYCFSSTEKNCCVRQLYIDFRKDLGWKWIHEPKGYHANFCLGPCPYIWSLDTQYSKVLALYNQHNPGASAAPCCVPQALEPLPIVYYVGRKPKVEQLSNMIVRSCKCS
# Chain of L-TGF-β1/LRRC33 complex (L-TGF-β1 dimer disulfide-linked to one LRRC33 ectodomain) (human, N-linked glycosylation | N-linked glycosylation) (chain, as listed by the source, chain 1 of 2): as the sequence (P01137 other isoform, or with tags, fused parts or gaps R249A R249A) above, with S4C, A249R counted along it
# Chain of L-TGF-β1/LRRC33 complex (L-TGF-β1 dimer disulfide-linked to one LRRC33 ectodomain) (human, N-linked glycosylation | N-linked glycosylation) (chain, as listed by the source, chain 2 of 2): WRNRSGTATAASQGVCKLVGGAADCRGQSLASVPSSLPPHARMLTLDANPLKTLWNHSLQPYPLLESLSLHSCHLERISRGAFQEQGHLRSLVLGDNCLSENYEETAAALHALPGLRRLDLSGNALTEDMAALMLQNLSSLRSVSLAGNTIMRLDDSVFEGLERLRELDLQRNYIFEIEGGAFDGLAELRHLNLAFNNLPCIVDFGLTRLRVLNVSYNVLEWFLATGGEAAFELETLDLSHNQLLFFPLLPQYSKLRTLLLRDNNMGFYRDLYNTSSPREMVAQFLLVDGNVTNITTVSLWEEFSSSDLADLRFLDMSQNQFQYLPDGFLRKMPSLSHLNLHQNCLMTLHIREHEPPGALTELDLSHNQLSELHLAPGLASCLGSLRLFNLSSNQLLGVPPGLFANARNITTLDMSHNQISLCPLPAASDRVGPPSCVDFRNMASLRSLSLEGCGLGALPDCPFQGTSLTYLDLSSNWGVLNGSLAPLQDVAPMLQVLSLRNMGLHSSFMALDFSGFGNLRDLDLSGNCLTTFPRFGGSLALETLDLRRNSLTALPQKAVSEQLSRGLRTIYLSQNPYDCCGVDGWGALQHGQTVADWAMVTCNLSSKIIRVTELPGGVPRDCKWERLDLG
Binder,stoichiometry N [1],Kd [2]
B1,2 αVβ8 per L-TGF-β1 dimer/LRRC33 complex,111 nM
B2,,2.18 nM
B3,,46.9 nM
